Data as given in article PMC9482650, “Quantitative fragmentomics allow affinity mapping of interactomes” (Nature Communications, 2022).

Experiments:
Assay in all cases: holdup assay
Parameters in all cases: key: below the threshold = too weak to quantify, mostly under pKd 3.1 to 4
GRIP2_3, Q9C0E4 = molecular target: GRIP2_3, Q9C0E4
ARHGEF12, Q9NZN5-2 = molecular target: ARHGEF12, Q9NZN5-2
LRRC7, Q96NW7 = molecular target: T1, LRRC7, Q96NW7
T1 sequence (Q96NW7 1440-1537, limits assumed, looked up): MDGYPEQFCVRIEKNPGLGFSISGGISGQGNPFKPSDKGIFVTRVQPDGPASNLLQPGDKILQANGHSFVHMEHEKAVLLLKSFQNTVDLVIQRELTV

DLG2_3, Q15700 = molecular target: DLG2_3, Q15700
GRIP2_6, Q9C0E4 = molecular target: GRIP2_6, Q9C0E4
Inadl_1, Q8NI35 = molecular target: Inadl_1, Q8NI35
NHERF3_4, Q5T2W1 = molecular target: T2, NHERF3_4, Q5T2W1
T2 sequence (Q5T2W1 373-468, limits assumed, looked up): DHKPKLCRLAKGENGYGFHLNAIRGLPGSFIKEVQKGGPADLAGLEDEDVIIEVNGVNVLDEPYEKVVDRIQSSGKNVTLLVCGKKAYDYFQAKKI

TJP1_2, Q07157 = molecular target: TJP1_2, Q07157
SCRIB_2, Q14160 = molecular target: SCRIB_2, Q14160
TX1BP3, O14907 = molecular target: T3, TX1BP3, O14907
T3 sequence (O14907 10-122, limits assumed, looked up): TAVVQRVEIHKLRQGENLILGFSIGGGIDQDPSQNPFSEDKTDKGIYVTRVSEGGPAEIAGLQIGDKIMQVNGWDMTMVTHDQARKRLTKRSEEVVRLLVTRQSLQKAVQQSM

FRMPD2_1, Q68DX3 = molecular target: FRMPD2_1, Q68DX3
GRIP2_5, Q9C0E4 = molecular target: GRIP2_5, Q9C0E4
LDB3, O75112 = molecular target: LDB3, O75112
PDZRN3_1, Q9UPQ7 = molecular target: T4, PDZRN3_1, Q9UPQ7
T4 sequence (Q9UPQ7 244-349, limits assumed, looked up): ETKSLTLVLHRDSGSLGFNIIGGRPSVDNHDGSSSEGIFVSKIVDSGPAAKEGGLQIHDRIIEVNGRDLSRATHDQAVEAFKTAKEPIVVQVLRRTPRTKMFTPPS

MPP2, Q14168 = molecular target: T5, MPP2, Q14168
T5 sequence (Q14168 180-250, limits assumed, looked up): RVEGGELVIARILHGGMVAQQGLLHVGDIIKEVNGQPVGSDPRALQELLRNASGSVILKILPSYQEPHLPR

MAST2, Q6P0Q8 = molecular target: MAST2, Q6P0Q8
SNTB1, Q13884 = molecular target: T6, SNTB1, Q13884
T6 sequence (Q13884 107-205, limits assumed, looked up): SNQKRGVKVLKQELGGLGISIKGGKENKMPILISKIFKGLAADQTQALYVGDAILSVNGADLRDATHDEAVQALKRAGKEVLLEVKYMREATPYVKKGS

PDLIM1, O00151 = molecular target: PDLIM1, O00151
DLG3_1, Q92796 = molecular target: T7, DLG3_1, Q92796
T7 sequence (Q92796 125-227, limits assumed, looked up): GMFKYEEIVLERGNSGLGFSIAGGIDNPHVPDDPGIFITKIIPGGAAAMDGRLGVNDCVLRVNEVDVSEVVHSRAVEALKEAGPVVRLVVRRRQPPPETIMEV

HTRA4, P83105 = molecular target: T8, HTRA4, P83105
T8 sequence (P83105 378-476, limits assumed, looked up): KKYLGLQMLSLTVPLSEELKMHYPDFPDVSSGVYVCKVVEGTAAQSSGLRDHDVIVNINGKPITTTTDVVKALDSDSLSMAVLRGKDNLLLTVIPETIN

GORASP2, Q9H8Y8 = molecular target: GORASP2, Q9H8Y8
MPP6, Q9NZW5 = molecular target: T9, MPP6, Q9NZW5
T9 sequence (Q9NZW5 125-219, limits assumed, looked up): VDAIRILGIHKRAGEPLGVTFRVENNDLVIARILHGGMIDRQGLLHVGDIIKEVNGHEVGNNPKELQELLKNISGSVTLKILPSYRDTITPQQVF

LNX1_3, Q8TBB1 = molecular target: LNX1_3, Q8TBB1
DLG2_2, Q15700 = molecular target: DLG2_2, Q15700
NHERF3_1, Q5T2W1 = molecular target: T10, NHERF3_1, Q5T2W1
T10 sequence (Q5T2W1 4-100, limits assumed, looked up): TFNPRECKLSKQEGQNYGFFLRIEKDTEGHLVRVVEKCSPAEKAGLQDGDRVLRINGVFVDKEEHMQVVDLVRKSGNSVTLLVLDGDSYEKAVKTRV

LIN7B, Q9HAP6 = molecular target: T11, LIN7B, Q9HAP6
T11 sequence (Q9HAP6 88-185, limits assumed, looked up): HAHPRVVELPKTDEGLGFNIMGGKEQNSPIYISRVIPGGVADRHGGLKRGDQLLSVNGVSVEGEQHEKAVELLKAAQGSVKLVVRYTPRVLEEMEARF

[1] = plain residues with an end cap or a label only (N-terminal biotin on a linker: ttds)
[2] = plain residues with an end cap or a label only (N-terminal biotin on a linker: ahx)

Measured: pKd

FRMPD2_1, Q68DX3, sequence (Q68DX3 770-861): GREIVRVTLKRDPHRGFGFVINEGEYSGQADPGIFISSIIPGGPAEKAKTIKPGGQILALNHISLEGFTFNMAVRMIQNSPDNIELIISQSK
Inadl_1, Q8NI35, sequence (Q8NI35 113-229): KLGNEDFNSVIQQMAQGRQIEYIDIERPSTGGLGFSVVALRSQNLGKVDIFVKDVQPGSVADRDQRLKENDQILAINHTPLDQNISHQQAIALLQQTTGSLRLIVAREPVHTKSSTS
SCRIB_2, Q14160, sequence (Q14160 857-960): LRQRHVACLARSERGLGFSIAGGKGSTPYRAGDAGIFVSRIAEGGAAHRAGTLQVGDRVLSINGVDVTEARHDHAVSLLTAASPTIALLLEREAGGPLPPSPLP
GRIP2_5, Q9C0E4, sequence (Q9C0E4 544-642): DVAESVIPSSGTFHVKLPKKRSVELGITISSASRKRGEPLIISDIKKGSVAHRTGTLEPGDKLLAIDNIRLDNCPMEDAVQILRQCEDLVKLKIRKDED
ARHGEF12, Q9NZN5-2, sequence (Q9NZN5 other isoform, or with tags, fused parts or gaps): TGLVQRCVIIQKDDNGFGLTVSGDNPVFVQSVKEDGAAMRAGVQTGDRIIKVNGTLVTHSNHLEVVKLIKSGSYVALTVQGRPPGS
TJP1_2, Q07157, sequence (Q07157 181-274): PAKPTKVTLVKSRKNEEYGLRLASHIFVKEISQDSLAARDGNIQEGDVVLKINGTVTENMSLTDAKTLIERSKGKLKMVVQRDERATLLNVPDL
MAST2, Q6P0Q8, sequence (Q6P0Q8 1099-1202): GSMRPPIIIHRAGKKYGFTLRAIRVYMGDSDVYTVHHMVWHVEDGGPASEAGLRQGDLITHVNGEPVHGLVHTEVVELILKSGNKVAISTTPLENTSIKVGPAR
PDLIM1, O00151, sequence (O00151 1-87): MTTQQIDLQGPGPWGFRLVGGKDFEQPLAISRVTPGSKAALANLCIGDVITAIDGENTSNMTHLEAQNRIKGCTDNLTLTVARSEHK
GRIP2_3, Q9C0E4, sequence (Q9C0E4 238-339): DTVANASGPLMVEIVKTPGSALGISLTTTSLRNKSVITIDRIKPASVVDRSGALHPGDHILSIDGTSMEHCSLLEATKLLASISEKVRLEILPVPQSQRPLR
GRIP2_6, Q9C0E4, sequence (Q9C0E4 648-740): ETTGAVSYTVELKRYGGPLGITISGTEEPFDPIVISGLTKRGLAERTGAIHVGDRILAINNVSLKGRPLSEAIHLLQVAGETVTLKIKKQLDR
LDB3, O75112, sequence (O75112 1-94): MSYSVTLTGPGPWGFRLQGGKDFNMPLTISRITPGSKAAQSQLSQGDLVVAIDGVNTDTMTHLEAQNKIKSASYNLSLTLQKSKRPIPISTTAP
LNX1_3, Q8TBB1, sequence (Q8TBB1 500-596): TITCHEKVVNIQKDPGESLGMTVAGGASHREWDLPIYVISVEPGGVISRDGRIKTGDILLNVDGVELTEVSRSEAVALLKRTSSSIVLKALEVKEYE

KKYVDAETSL [SLC4A7, Q9Y6M7]
below the threshold: GRIP2_3, Q9C0E4; [1] | LRRC7, Q96NW7; [1] | DLG2_3, Q15700; [1] | GRIP2_6, Q9C0E4; [1] | NHERF3_4, Q5T2W1; [1] | TJP1_2, Q07157; [1] | FRMPD2_1, Q68DX3; [1] | GRIP2_5, Q9C0E4; [1] | LDB3, O75112; [1] | MPP2, Q14168; [1] | PDLIM1, O00151; [1] | HTRA4, P83105; [1] | GORASP2, Q9H8Y8; [1] | MPP6, Q9NZW5; [1] | LNX1_3, Q8TBB1; [1] | DLG2_2, Q15700; [1]
3.49: DLG3_1, Q92796; [1]
4.29: ARHGEF12, Q9NZN5-2; [1]
4.57: PDZRN3_1, Q9UPQ7; [1]
3.53: LIN7B, Q9HAP6; [1]
3.77: SCRIB_2, Q14160; [1]
4.46: SNTB1, Q13884; [1]
3.55: Inadl_1, Q8NI35; [1]
5.38: NHERF3_1, Q5T2W1; [1]
3.82: TX1BP3, O14907; [1]
6.38: MAST2, Q6P0Q8; [1]

ESLLLGPSNF [SHROOM4, Q9ULL8]
below the threshold: GRIP2_3, Q9C0E4; [2] | ARHGEF12, Q9NZN5-2; [2] | LRRC7, Q96NW7; [2] | DLG2_3, Q15700; [2] | GRIP2_6, Q9C0E4; [2] | Inadl_1, Q8NI35; [2] | NHERF3_4, Q5T2W1; [2] | TJP1_2, Q07157; [2] | SCRIB_2, Q14160; [2] | TX1BP3, O14907; [2] | FRMPD2_1, Q68DX3; [2] | GRIP2_5, Q9C0E4; [2] | LDB3, O75112; [2] | PDZRN3_1, Q9UPQ7; [2] | MPP2, Q14168; [2] | MAST2, Q6P0Q8; [2] | SNTB1, Q13884; [2] | PDLIM1, O00151; [2] | DLG3_1, Q92796; [2] | HTRA4, P83105; [2] | GORASP2, Q9H8Y8; [2] | MPP6, Q9NZW5; [2] | LNX1_3, Q8TBB1; [2] | DLG2_2, Q15700; [2] | NHERF3_1, Q5T2W1; [2] | LIN7B, Q9HAP6; [2]

QRQARSETLV [HPV59-E6, Q81964]
below the threshold: GRIP2_3, Q9C0E4; [1] | ARHGEF12, Q9NZN5-2; [1] | LRRC7, Q96NW7; [1] | GRIP2_6, Q9C0E4; [1] | Inadl_1, Q8NI35; [1] | NHERF3_4, Q5T2W1; [1] | TJP1_2, Q07157; [1] | FRMPD2_1, Q68DX3; [1] | GRIP2_5, Q9C0E4; [1] | LDB3, O75112; [1] | MPP2, Q14168; [1] | PDLIM1, O00151; [1] | MPP6, Q9NZW5; [1] | LNX1_3, Q8TBB1; [1] | LIN7B, Q9HAP6; [1]
5.03: MAST2, Q6P0Q8; [1]
4.34: GORASP2, Q9H8Y8; [1]
4.97: DLG2_2, Q15700; [1]
4.84: DLG2_3, Q15700; [1]
3.86: SNTB1, Q13884; [1]
3.78: HTRA4, P83105; [1]
4.05: TX1BP3, O14907; [1]
4.22: PDZRN3_1, Q9UPQ7; [1]
4.82: NHERF3_1, Q5T2W1; [1]
4.18: SCRIB_2, Q14160; [1]
4.58: DLG3_1, Q92796; [1]
